Columns and labels:
HeLa Kyoto [1] = assay: solubility change mitosis vs G1/S (difference of NP-40 vs SDS log2 ratios) (log2 ratio difference); higher = more soluble in mitosis
HeLa Kyoto [2] = assay: thermal stability score vs G1/S (z-score of summed log2 fold changes over temperatures); higher = more thermally stable than in G1/S
HeLa Kyoto [3] = assay: solubility in G1/S (NP-40 vs SDS abundance) (log2 ratio); higher = more soluble; settings: cell cycle stage: G1/S
HeLa Kyoto [4] = assay: melting temperature (median over replicates), in situ; higher = more thermally stable
[5] = cell cycle stage: early G1 (4.5 h after nocodazole release)
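Throughout, for melting temperature (median over replicates), in situ: HeLa Kyoto cells synchronized by double thymidine or nocodazole block, proteins quantified by TMT10plex mass spectrometry, three independent biological replicates.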
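Throughout, for solubility change mitosis vs G1/S (difference of NP-40 vs SDS log2 ratios): synchronized HeLa Kyoto cells (double thymidine block for G1/S, nocodazole release for mitosis), protein amounts in NP-40 versus SDS lysates quantified by mass spectrometry, three biological replicates.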
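Throughout, for solubility in G1/S (NP-40 vs SDS abundance): HeLa Kyoto cells arrested at G1/S by double thymidine block, proteins quantified by TMT10plex mass spectrometry in mild NP-40 versus SDS extracts, three biological replicates.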
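Throughout, for thermal stability score vs G1/S (z-score of summed log2 fold changes over temperatures): synchronized HeLa Kyoto cells, proteins quantified by TMT10plex mass spectrometry, three biological replicates, mitosis taken 0.5 h after nocodazole release, G1/S directly after double thymidine block.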

RNGTT, sequence (chain, as listed by the source): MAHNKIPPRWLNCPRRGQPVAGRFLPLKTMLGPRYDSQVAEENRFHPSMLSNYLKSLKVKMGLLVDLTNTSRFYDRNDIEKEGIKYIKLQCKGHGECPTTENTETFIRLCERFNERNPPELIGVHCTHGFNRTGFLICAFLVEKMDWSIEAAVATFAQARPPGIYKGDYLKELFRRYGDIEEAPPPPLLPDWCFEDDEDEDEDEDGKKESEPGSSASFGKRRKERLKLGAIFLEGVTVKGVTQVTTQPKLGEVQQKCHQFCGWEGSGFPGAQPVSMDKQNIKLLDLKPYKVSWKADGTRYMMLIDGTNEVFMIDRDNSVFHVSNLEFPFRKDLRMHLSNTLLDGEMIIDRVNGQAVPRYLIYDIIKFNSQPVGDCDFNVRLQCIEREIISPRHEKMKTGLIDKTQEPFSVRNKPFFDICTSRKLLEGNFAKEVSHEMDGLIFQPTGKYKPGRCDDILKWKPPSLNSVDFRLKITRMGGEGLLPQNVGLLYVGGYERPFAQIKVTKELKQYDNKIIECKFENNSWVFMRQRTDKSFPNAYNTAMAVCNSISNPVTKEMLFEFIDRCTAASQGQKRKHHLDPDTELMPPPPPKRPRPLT

| Substance | solubility change mitosis (log2) (HeLa Kyoto [1]) | thermal stability score (HeLa Kyoto [2]; [5]) | thermal stability score (HeLa Kyoto [2]; cell cycle stage: mitosis) | solubility in G1/S (log2) (HeLa Kyoto [3]) | melting temperature (HeLa Kyoto [4]; cell cycle stage: G1/S) [°C] | melting temperature (HeLa Kyoto [4]; cell cycle stage: mitosis) [°C] |
| --- | --- | --- | --- | --- | --- | --- |
| MGVPAFFRWLSRKYPSIIVNCVEEKPKECNGVKIPVDASKPNPNDVEFDNLYLDMNGIIHPCTHPEDKPAPKNEDEMMVAIFEYIDRLFSIVRPRRLLYMAIDGVAPRAKMNQQRSRRFRASKEGMEAAVEKQRVREEILAKGGFLPPEEIKERFDSNCITPGTEFMDNLAKCLRYYIADRLNNDPGWKNLTVILSDASAPGEGEHKIMDYIRRQRAQPNHDPNTHHCLCGADADLIMLGLATHEPNFTIIREEFKPNKPKPCGLCNQFGHEVKDCEGLPREKKGKHDELADSLPCAEGEFIFLRLNVLREYLERELTMASLPFTFDVERSIDDWVFMCFFVGNDFLPHLPSLEIRENAIDRLVNIYKNVVHKTGGYLTESGYVNLQRVQMIMLAVGEVEDSIFKKRKDDEDSFRRRQKEKRKRMKRDQPAFTPSGILTPHALGSRNSPGSQVASNPRQAAYEMRMQNNSSPSISPNTSFTSDGSPSPLGGIKRKAEDSDSEPEPEDNVRLWEAGWKQRYYKNKFDVDAADEKFRRKVVQSYVEGLCWVLRYYYQGCASWKWYYPFHYAPFASDFEGIADMPSDFEKGTKPFKPLEQLMGVFPAASGNFLPPSWRKLMSDPDSSIIDFYPEDFAIDLNGKKYAWQGVALLPFVDERRLRAALEEVYPDLTPEETRRNSLGGDVLFVGKHHPLHDFILELYQTGSTEPVEVPPELCHGIQGKFSLDEEAILPDQIVCSPVPMLRDLTQNTVVSINFKDPQFAEDYIFKAVMLPGARKPAAVLKPSDWEKSSNGRQWKPQLGFNRDRRPVHLDQAAFRTLGHVMPRGSGTGIYSNAAPPPVTYQGNLYRPLLRGQAQIPKLMSNMRPQDSWRGPPPLFQQQRFDRGVGAEPLLPWNRMLQTQNAAFQPNQYQMLAGPGGYPPRRDDRGGRQGYPREGRKYPLPPPSGRYNWN [XRN2] | 0.128 | 1.15 | 0.632 | -0.126 | 50.2 | 50.4 |
| MAACTARRALAVGSRWWSRSLTGARWPRPLCAAAGAGAFSPASTTTTRRHLSSRNRPEGKVLETVGVFEVPKQNGKYETGQLFLHSIFGYRGVVLFPWQARLYDRDVASAAPEKAENPAGHGSKEVKGKTHTYYQVLIDARDCPHISQRSQTEAVTFLANHDDSRALYAIPGLDYVSHEDILPYTSTDQVPIQHELFERFLLYDQTKAPPFVARETLRAWQEKNHPWLELSDVHRETTENIRVTVIPFYMGMREAQNSHVYWWRYCIRLENLDSDVVQLRERHWRIFSLSGTLETVRGRGVVGREPVLSKEQPAFQYSSHVSLQASSGHMWGTFRFERPDGSHFDVRIPPFSLESNKDEKTPPSGLHW [POLDIP2] | -0.0327 | 0.146 | -0.814 | 0.07 | 50.9 | 51.4 |
| RNGTT | -0.0839 | 0.407 | 0.579 | -0.301 | 47.7 | 48.7 |
| MSGFSPELIDYLEGKISFEEFERRREERKTREKKSLQEKGKLSAEENPDDSEVPSSSGINSTKSQDKDVNEGETSDGVRKSVHKVFASMLGENEDDEEEEEEEEEEEEEEETPEQPTAGDVFVLEMVLNRETKKMMKEKRPRSKLPRALRGLMGEANIRFARGEREEAILMCMEIIRQAPLAYEPFSTLAMIYEDQGDMEKSLQFELIAAHLNPSDTEEWVRLAEMSLEQDNIKQAIFCYTKALKYEPTNVRYLWERSSLYEQMGDHKMAMDGYRRILNLLSPSDGERFMQLARDMAKSYYEANDVTSAINIIDEAFSKHQGLVSMEDVNIAAELYISNKQYDKALEIITDFSGIVLEKKTSEEGTSEENKAPENVTCTIPDGVPIDITVKLMVCLVHLNILEPLNPLLTTLVEQNPEDMGDLYLDVAEAFLDVGEYNSALPLLSALVCSERYNLAVVWLRHAECLKALGYMERAAESYGKVVDLAPLHLDARISLSTLQQQLGQPEKALEALEPMYDPDTLAQDANAAQQELKLLLHRSTLLFSQGKMYGYVDTLLTMLAMLLKVAMNRAQVCLISSSKSGERHLYLIKVSRDKISDSNDQESANCDAKAIFAVLTSVLTKDDWWNLLLKAIYSLCDLSRFQEAELLVDSSLEYYSFYDDRQKRKELEYFGLSAAILDKNFRKAYNYIRIMVMENVNKPQLWNIFNQVTMHSQDVRHHRFCLRLMLKNPENHALCVLNGHNAFVSGSFKHALGQYVQAFRTHPDEPLYSFCIGLTFIHMASQKYVLRRHALIVQGFSFLNRYLSLRGPCQESFYNLGRGLHQLGLIHLAIHYYQKALELPPLVVEGIELDQLDLRRDIAYNLSLIYQSSGNTGMAQTLLYTYCSI [GTF3C3] | -0.0144 | 2.95 | 5.2 | -0.231 | 45.9 | 49.1 |
| MAFQKAVKGTILVGGGALATVLGLSQFAHYRRKQMNLAYVKAADCISEPVNREPPSREAQLLTLQNTSEFDILVIGGGATGSGCALDAVTRGLKTALVERDDFSSGTSSRSTKLIHGGVRYLQKAIMKLDIEQYRMVKEALHERANLLEIAPHLSAPLPIMLPVYKWWQLPYYWVGIKLYDLVAGSNCLKSSYVLSKSRALEHFPMLQKDKLVGAIVYYDGQHNDARMNLAIALTAARYGAATANYMEVVSLLKKTDPQTGKVRVSGARCKDVLTGQEFDVRAKCVINATGPFTDSVRKMDDKDAAAICQPSAGVHIVMPGYYSPESMGLLDPATSDGRVIFFLPWQKMTIAGTTDTPTDVTHHPIPSEEDINFILNEVRNYLSCDVEVRRGDVLAAWSGIRPLVTDPKSADTQSISRNHVVDISESGLITIAGGKWTTYRSMAEDTINAAVKTHNLKAGPSRTVGLFLQGGKDWSPTLYIRLVQDYGLESEVAQHLAATYGDKAFEVAKMASVTGKRWPIVGVRLVSEFPYIEAEVKYGIKEYACTAVDMISRRTRLAFLNVQAAEEALPRIVELMGRELNWDDYKKQEQLETARKFLYYEMGYKSRSEQLTDRSEISLLPSDIDRYKKRFHKFDADQKGFITIVDVQRVLESINVQMDENTLHEILNEVDLNKNGQVELNEFLQLMSAIQKGRVSGSRLAILMKTAEENLDRRVPIPVDRSCGGL [GPD2] | -0.0945 | -2.62 | -2.93 | 0.104 | 59.2 | 59 |
| MADRDSGSEQGGAALGSGGSLGHPGSGSGSGGGGGGGGGGGGSGGGGGGAPGGLQHETQELASKRVDIQNKRFYLDVKQNAKGRFLKIAEVGAGGNKSRLTLSMSVAVEFRDYLGDFIEHYAQLGPSQPPDLAQAQDEPRRALKSEFLVRENRKYYMDLKENQRGRFLRIRQTVNRGPGLGSTQGQTIALPAQGLIEFRDALAKLIDDYGVEEEPAELPEGTSLTVDNKRFFFDVGSNKYGVFMRVSEVKPTYRNSITVPYKVWAKFGHTFCKYSEEMKKIQEKQREKRAACEQLHQQQQQQQEETAAATLLLQGEEEGEED [PURA] | 0.112 | -2.25 | -4.83 | 0.415 | 58 | 56.5 |
| METFDPTELPELLKLYYRRLFPYSQYYRWLNYGGVIKNYFQHREFSFTLKDDIYIRYQSFNNQSDLEKEMQKMNPYKIDIGAVYSHRPNQHNTVKLGAFQAQEKELVFDIDMTDYDDVRRCCSSADICPKCWTLMTMAIRIIDRALKEDFGFKHRLWVYSGRRGVHCWVCDESVRKLSSAVRSGIVEYLSLVKGGQDVKKKVHLSEKIHPFIRKSINIIKKYFEEYALVNQDILENKESWDKILALVPETIHDELQQSFQKSHNSLQRWEHLKKVASRYQNNIKNDKYGPWLEWEIMLQYCFPRLDINVSKGINHLLKSPFSVHPKTGRISVPIDLQKVDQFDPFTVPTISFICRELDAISTNEEEKEENEAESDVKHRTRDYKKTSLAPYVKVFEHFLENLDKSRKGELLKKSDLQKDF [PRIM1] | -0.247 | 0.672 | 1.37 | -0.144 | 48.8 | 49.6 |
| GOLGB1 | -0.0748 | 1.43 | 4.58 | 0.115 | 48.6 | 49.9 |
| MALLTAAARLLGTKNASCLVLAARHASASSTNLKDILADLIPKEQARIKTFRQQHGKTVVGQITVDMMYGGMRGMKGLVYETSVLDPDEGIRFRGFSIPECQKLLPKAKGGEEPLPEGLFWLLVTGHIPTEEQVSWLSKEWAKRAALPSHVVTMLDNFPTNLHPMSQLSAAVTALNSESNFARAYAQGISRTKYWELIYEDSMDLIAKLPCVAAKIYRNLYREGSGIGAIDSNLDWSHNFTNMLGYTDHQFTELTRLYLTIHSDHEGGNVSAHTSHLVGSALSDPYLSFAAAMNGLAGPLHGLANQEVLVWLTQLQKEVGKDVSDEKLRDYIWNTLNSGRVVPGYGHAVLRKTDPRYTCQREFALKHLPNDPMFKLVAQLYKIVPNVLLEQGKAKNPWPNVDAHSGVLLQYYGMTEMNYYTVLFGVSRALGVLAQLIWSRALGFPLERPKSMSTEGLMKFVDSKSG [CS] | -0.0123 | 1.01 | 0.1 | 0.519 | 52 | 51.9 |
| MAAAEPAVLALPNSGAGGAGAPSGTVPVLFCFSVFARPSSVPHGAGYELLIQKFLSLYGDQIDMHRKFVVQLFAEEWGQYVDLPKGFAVSERCKVRLVPLQIQLTTLGNLTPSSTVFFCCDMQERFRPAIKYFGDIISVGQRLLQGARILGIPVIVTEQYPKGLGSTVQEIDLTGVKLVLPKTKFSMVLPEVEAALAEIPGVRSVVLFGVETHVCIQQTALELVGRGVEVHIVADATSSRSMMDRMFALERLARTGIIVTTSEAVLLQLVADKDHPKFKEIQNLIKASAPESGLLSKV [ISOC1] | -0.11 | -1.52 | -0.91 | 0.237 | 55.3 | 55.4 |
| MVEADRPGKLFIGGLNTETNEKALEAVFGKYGRIVEVLLMKDRETNKSRGFAFVTFESPADAKDAARDMNGKSLDGKAIKVEQATKPSFESGRRGPPPPPRSRGPPRGLRGGRGGSGGTRGPPSRGGHMDDGGYSMNFNMSSSRGPLPVKRGPPPRSGGPPPKRSAPSGPVRSSSGMGGRAPVSRGRDSYGGPPRREPLPSRRDVYLSPRDDGYSTKDSYSSRDYPSSRDTRDYAPPPRDYTYRDYGHSSSRDDYPSRGYSDRDGYGRDRDYSDHPSGGSYRDSYESYGNSRSAPPTRGPPPSYGGSSRYDDYSSSRDGYGGSRDSYSSSRSDLYSSGRDRVGRQERGLPPSMERGYPPPRDSYSSSSRGAPRGGGRGGSRSDRGGGRSRY [RBMX] | 0.777 | -0.25 | 7.17 | -0.567 | 47.5 | 50.5 |
| MAEMGSKGVTAGKIASNVQKKLTRAQEKVLQKLGKADETKDEQFEQCVQNFNKQLTEGTRLQKDLRTYLASVKAMHEASKKLNECLQEVYEPDWPGRDEANKIAENNDLLWMDYHQKLVDQALLTMDTYLGQFPDIKSRIAKRGRKLVDYDSARHHYESLQTAKKKDEAKIAKPVSLLEKAAPQWCQGKLQAHLVAQTNLLRNQAEEELIKAQKVFEEMNVDLQEELPSLWNSRVGFYVNTFQSIAGLEENFHKEMSKLNQNLNDVLVGLEKQHGSNTFTVKAQPSDNAPAKGNKSPSPPDGSPAATPEIRVNHEPEPAGGATPGATLPKSPSQLRKGPPVPPPPKHTPSKEVKQEQILSLFEDTFVPEISVTTPSQFEAPGPFSEQASLLDLDFDPLPPVTSPVKAPTPSGQSIPWDLWEPTESPAGSLPSGEPSAAEGTFAVSWPSQTAEPGPAQPAEASEVAGGTQPAAGAQEPGETAASEAASSSLPAVVVETFPATVNGTVEGGSGAGRLDLPPGFMFKVQAQHDYTATDTDELQLKAGDVVLVIPFQNPEEQDEGWLMGVKESDWNQHKELEKCRGVFPENFTERVP [BIN1] | -0.0586 | -1.69 | 0.531 | 0.803 | 51.9 | 51.6 |

From the supplement of paper PMC5998384
